# Measurements taken from patent US20190309074A1, “DEGLYCOSYLATED ANTIBODY SPECIFICALLY BINDING TO CLEC14A AND USES THEREOF” (WOORI TECHNOLOGIES CORPORATION, priority 2016, published 2019).
# Changes are numbered by the printed parent chain.
# T1: mclec14a-CTLD-Fc (mouse, UniProt Q8VCP9 31-172, limits assumed)
# T1 construct: domain: C-type lectin-like domain (CTLD); also called mouse clec14a-CTLD-Fc; mouse CTLD; not shown: Fc
# T1 sequence (looked up): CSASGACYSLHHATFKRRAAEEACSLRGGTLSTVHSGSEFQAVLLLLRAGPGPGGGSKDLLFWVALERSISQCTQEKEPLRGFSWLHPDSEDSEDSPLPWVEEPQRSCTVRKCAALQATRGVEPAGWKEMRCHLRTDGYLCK
# T2: hclec14a-CTLD-Fc (human, UniProt Q86T13 31-172, limits assumed)
# T2 construct: domain: C-type lectin-like domain (CTLD); also called human clec14a-CTLD-Fc; human CTLD; not shown: Fc
# T2 sequence (looked up): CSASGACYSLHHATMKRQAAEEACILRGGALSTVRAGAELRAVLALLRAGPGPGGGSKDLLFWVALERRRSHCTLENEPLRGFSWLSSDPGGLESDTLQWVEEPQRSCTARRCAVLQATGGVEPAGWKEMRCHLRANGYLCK
# B1: deglyco C2 IgG (antibody, V domains shown)
# VH: EVQLVESGGGLVQPGGSLRLSCAVSGFTFSGYDMSWIRQAPGKGLEWVAGIYPDGGNTYYADSVKGRFTISRDDSKNTFYLQMNSLRAEDTAVYYCARGATWWVLGPFDYWGQGTLVTVSS
# VL: DIQLTQSPSSLSASVGDRVTITCTGSSSNIGATAVTWYQQKPGKAPKLLIYADSHRPSGVPSRFSGSGSGTDFTLTISSLQPEDFATYYCGAWDDSLSGYVFGQGTKVEIKR
# notes: IgG expressed in HEK293 cells; also called Deg C2
# B2: deglyco C4 IgG (antibody, V domains shown)
# VH: B1 VH
# VL: B1 VL with T33V, A34V
# notes: IgG expressed in HEK293 cells; also called Deg C4
# B3: deglyco C3 IgG (antibody, V domains shown)
# VH: B1 VH
# VL: B1 VL with A32W, T33S, A34N
# notes: IgG expressed in HEK293 cells; also called Deg C3
# B4: Opti 13: IgG, heavy chain CDR3 GAMEQVLGPFDL (SEQ ID No: 37), VL of Deg C1 (antibody, V domains shown)
# VH: B1 VH with T101M, W102E, W103Q, Y110L
# VL: B1 VL with A32R, T33C, A34G
# B5: Opti 16: IgG, heavy chain CDR3 GARRQVLGCFDF (SEQ ID No: 40), VL of Deg C1 (antibody, V domains shown)
# VH: B1 VH with T101R, W102R, W103Q, P107C, Y110F
# VL: B1 VL with A32R, T33C, A34G
# B6: Opti 1: IgG, heavy chain CDR3 GAATKVLGKFDC (SEQ ID No: 25), VL of Deg C1 (antibody, V domains shown)
# VH: B1 VH with T101A, W102T, W103K, P107K, Y110C
# VL: B1 VL with A32R, T33C, A34G
# B7: Deglyco-C3: deglycosylated clone 1 IgG; light chain CDR1 TGSSSNIGWSNVT (SEQ ID NO: 4) (antibody, V domains shown)
# VH: B1 VH
# VL: B1 VL with A32W, T33S, A34N
# B8: Deglyco-C4: deglycosylated clone 1 IgG; light chain CDR1 TGSSSNIGAVVVT (SEQ ID NO: 5) (antibody, V domains shown)
# VH: B1 VH
# VL: B1 VL with T33V, A34V
# B9: Deglyco-C2: deglycosylated clone 1 IgG; light chain CDR1 TGSSSNIGATAVT (SEQ ID NO: 3) (antibody, V domains shown)
# VH: B1 VH
# VL: B1 VL
# B10: Opti 3: IgG, heavy chain CDR3 GATWWVLGAFDY (SEQ ID No: 27), VL of Deg C1 (antibody, V domains shown)
# VH: B1 VH with P107A
# VL: B1 VL with A32R, T33C, A34G
# Target: T1, mclec14a-CTLD-Fc
# Assay: ELISA on mclec14a-CTLD-Fc
# Settings: not given
row,Molecule,binding result
1,B1,binds
2,B2,binds
3,B3,binds

# Target: T2, hclec14a-CTLD-Fc
# Assay: ELISA on hclec14a-CTLD-Fc
# Settings: not given
row,Molecule,binding result
1,B1,binds
2,B2,binds
3,B3,binds

# Test system: MAECs (mouse aortic endothelial cells)
# Assay: flow cytometry cross-species reactivity
# Type: cell-based
# Settings: 20 ug/ml
# Method: (§1) In order to identify cross-species reactivity of the optimized antibodies, HUVECs (human umbilical vein endothelial cells) and MAECs (mouse aortic endothelial cells) were each cultured, the two cell groups were treated with 20 ug/ml of the parent antibody (original C1), deglyco C1, and clones 1, 13 and 16, and whether or not binding ability exists on the surface of two types of cells was identified by flow cytometry.
row,Molecule,binding to MAEC surface
1,B4,had cross-species reactivity
2,B5,had cross-species reactivity
3,B6,had cross-species reactivity

# Test system: HUVECs (human umbilical vein endothelial cells)
# Assay: flow cytometry cross-species reactivity
# Type: cell-based
# Settings: 20 ug/ml
# Method: as §1
row,Molecule,binding to HUVEC surface
1,B4,had cross-species reactivity
2,B5,had cross-species reactivity
3,B6,had cross-species reactivity

# Test system: not listed separately
# Assay: aggregation and purification amounts of deglycosylated antibodies, before and after φ
# Type: physicochemical
# Settings: based on 100 ml culture
Molecule,"Final um, After φ [mg]","Final um, Before φ [mg]","Fraction1, After φ [mg]","Fraction1, Before φ [mg]","Fraction2, After φ [mg]","Fraction2, Before φ [mg]","Fraction3, After φ [mg]","Fraction3, Before φ [mg]","Fraction4, After φ [mg]","Fraction4, Before φ [mg]"
B7,2.768,2.918,0.012,0.014,2.109,2.209,0.520,0.580,0.127,0.129
B8,1.442,1.390,0.015,0.019,1.126,1.135,0.251,0.255,0.050,0.057
B9,5.018,5.032,0.018,0.019,3.702,3.718,1.110,1.113,0.198,0.201

# Test system: HUVEC migration
# Assay: IncuCyte HUVEC migration assay
# Type: cell-based, human
# Settings: 20 ug/ml
# Method: In order to analyze in vitro efficacies of the optimized candidate antibodies on endothelial migration, which is another function of angiogenesis, HUVEC migration assay was conducted using an IncuCyte FLR live content imaging system (Essen Bioscience Inc). At this time, regarding a wound, a uniform wound was created using a wound maker commercially available from Incucyte and was treated with 20 ug/ml of respective antibodies, and inhibitory activity against migration was comparatively evaluated.
row,Molecule,endothelial migration inhibitory activity
1,B4,"same endothelial migration inhibitory activity as parent antibody (original C1), deglyco C1 IgG, and Avastin"
2,B5,"same endothelial migration inhibitory activity as parent antibody (original C1), deglyco C1 IgG, and Avastin"
3,B6,"same endothelial migration inhibitory activity as parent antibody (original C1), deglyco C1 IgG, and Avastin"

# Test system: HUVEC cells
# Assay: EGM-dependent HUVEC tube formation
# Type: cell-based, human
# Settings: 20 ug/ml
# From the text: EGM is a type of complex including a variety of angiogenesis factors, which has been used to induce strong angiogenesis using vascular endothelial cells.
row,Molecule,suppression of EGM-dependent tube formation
1,B4,efficiently suppressing angiogenesis
2,B5,efficiently suppressing angiogenesis
3,B6,efficiently suppressing angiogenesis

# Test system: GFP-transfected HUVECs
# Assay: IncuCyte real-time VEGF-dependent angiogenesis assay
# Type: cell-based, human
# Settings: 20 ug/ml
# Method: In order to identify inhibitory activity of optimized candidate antibodies against angiogenesis dependent upon VEGF, which is a key factor of angiogenesis, anti-angiogenesis activity was comparatively analyzed using an IncuCyte FLR live content imaging system (Essen Bioscience Inc.) providing real-time analysis of angiogenesis. First, GFP-transfected HUVECs were seeded on a […] plate, were treated with 36 types of antibodies at a concentration of 20 ug/ml and in vitro efficacy was then compared. At this time, optimized antibodies were comparatively analyzed in terms of efficacy with parental IgG (parent antibody: clone 1 of WO 2013/187556), deglyco C1 and bevacizumab (Avastin) as positive control groups.
row,Molecule,anti-angiogenesis activity (tube length and branch point)
1,B5,potent efficacy
2,B6,potent efficacy
3,B10,potent efficacy

# Same assay, conditions: representative images
row,Molecule,changes in tube length (progression of angiogenesis)
1,B5,same efficacy as Suramin and Avastin
2,B6,same efficacy as Suramin and Avastin
3,B10,same efficacy as Suramin and Avastin
